Results from PMC3115021, “Dynamics of Cdk1 Substrate Specificity during the Cell Cycle” (Molecular Cell, 2011).

Columns and labels:
Assay in all cases: Quantitative phosphorylation assay of T33-Sic1ΔC constructs and recombinant substrates
Assay type in all cases: biochemical
Settings in all cases: Table S2; purified protein substrate; relative values, not divided by [S]
Clb2hpm-Cdk1 = target: T1, Clb2hpm-Cdk1 (Saccharomyces cerevisiae, UniProt P00546)
T1 construct: made in house; host or cells: S. cerevisiae strain DOM0964 (gal-CLB2hpm-TAP, sic1 deleted); Cks1 from bacteria
Experimental: (§1) For the quantitative phosphorylation assays of T33-Sic1ΔC constructs and recombinant substrates, substrate concentrations were kept in the range of 0.5–2 μM (in the linear [S] versus v0 range, several-fold below the estimated KM value), and initial velocity conditions were defined as an initial substrate turnover of up to 10% of the total turnover. For the steady-state peptide kinetics of the Histone peptide PKTPKKAKKL, a similar assay composition was used as for protein substrates, and phosphocellulose paper was used for the quantification of the phosphorylated substrate.
(§2) Supplemental Experimental Procedures
(§3) Plasmid constructs and yeast strains
(§4) For tandem affinity purification (TAP) of cyclin-Cdk1 complexes, the cyclin genes were cloned into the 2 micron vector pRSAB1234 containing a GAL1 promoter and the C-terminal TAP-tag. To purify different 6His-T33-Sic1ΔC forms for kinase assays, the C-terminally truncated fragment of Sic1 (with a stop codon inserted after amino acid 215) was cloned into the NheI/BamHI site of the bacterial expression vector pET28a (Invitrogen). Mutagenesis of cyclins or substrates was performed using single-stranded pRSAB1234 or pET28a vector constructs as templates. The triple mutants in the hydrophobic patch (hpm) of Clb5 and Clb2 were described previously (Loog and Morgan, 2005), and the hpm of Clb3 (Phe-201, Leu-205 and Trp-208 mutated to alanines) was designed according to sequence homology with other B-type cyclins. In T33-Sic1ΔC constructs, the other Cdk sites bearing the consensus motif S/T-P were mutated to Ala-Ala in order to prevent any possible (pseudo)substrate competition. The other Cdk substrates were cloned as full-length forms into bacterial expression vectors pET28a or pGEX-4T-1. Cdh1 was purified using the baculovirus system and was a kind gift from Monica Rodrigo-Brenni (UCSF). […]
The […]
(§5) pRSAB1234 analogously to the cyclin-Cdk1 complexes. For C-terminal tagging of cyclin genes in their chromosomal loci, the Pringle method was applied (Longtine et al., 1998). Lists of plasmid […]
(§6) The TAP method was applied for purification of cyclin-Cdk1 complexes and Swe1 as described previously for Clb5-TAP-Cdk1 and Clb2-TAP-Cdk1 (Puig et al., 2001; Ubersax et al., 2003). […]
(§7) tagged recombinant T33-Sic1ΔC constructs and substrates were cloned into the pET28a vector and purified by standard cobalt affinity chromatography and elution with 200 mM imidazole. 6His-Fin1 was purified as described previously (Woodbury and Morgan, 2007). Substrates cloned into the pGEX-4T-1 were purified on glutathione agarose columns using 5 mM reduced glutathione for elution. Cks1 was purified as described previously (Reynard et al., 2000). The optimal working concentration for purified Cks1 was taken as 500 nM based on optimization performed for cyclin-Cdk1 preparations and T33-Sic1ΔC as a substrate.
(§8) For the quantitative phosphorylation assays of T33-Sic1ΔC constructs and recombinant substrates, substrate concentrations were kept in the range of 0.5-2 μM (in the linear [S] vs v0 range, several-fold below the estimated KM value), and the initial velocity conditions were defined as an initial substrate turnover ranging up to 10% of the total turnover. The latter was estimated by a long-term incubation with excess amounts of cyclin-Cdk1 and 32P-γ-ATP in the standard reaction mixture given below. About 1-10 nM of purified kinase complex was used, reaction aliquots were taken at two or more time points, and the reaction was stopped by SDS-PAGE sample buffer. The relative kcat/KM values for the substrates were calculated as the ratio of v0/[S], which was determined from at least two independent experiments. The basal composition of the assay mixture contained 50 mM Hepes, pH 7.4, 100 mM NaCl, 0.1% NP-40, 20 mM imidazole, 0.1 mg/ml 2HA peptide, 2% glycerol, 2 mM EGTA, 0.2 mg/ml BSA, […], and 500 μM ATP (with added 32P-γ-ATP (Perkin Elmer)).
(§9) About 1-10 nM of purified kinase complex was used, reaction aliquots were taken at two or more […]

Clb5hpm-Cdk1 = target: T2, Clb5hpm-Cdk1 (Saccharomyces cerevisiae, UniProt P00546)
T2 construct: made in house; host or cells: S. cerevisiae strain DOM0963 (gal-CLB5hpm-TAP, sic1 deleted); Cks1 from bacteria
Experimental: as §1, §2, §3, §4
The […]
as §5, §6, §7, §8, §9

Clb3hpm-Cdk1 = target: T3, Clb3hpm-Cdk1 (Saccharomyces cerevisiae, UniProt P00546+P24870)
T3 construct: made in house; host or cells: S. cerevisiae strain MK0168 (gal-CLB3hpm-TAP, sic1 deleted); Cks1 from bacteria
Experimental: as §1, §2, §3, §4
The […]
as §5, §6, §7, §8, §9

Clb2-Cdk1 = target: T4, Clb2-Cdk1 (Saccharomyces cerevisiae, UniProt P00546+P24869)
T4 construct: We purified the four cyclin-Cdk1 complexes from yeast; made in house; host or cells: S. cerevisiae strain DOM0077 (gal-CLB2-TAP, sic1 deleted); Cks1 from bacteria
Experimental: as §1, with “substrate. […]” for “substrate.”
as §7, with “similar substrate specificity as the Cln2-Cdk1 version purified using a TAP-tag. N-terminally 6His-tagged” for “tagged”
as §8
(§10) About 1-10 nM of purified kinase complex was used, reaction aliquots were taken at two or more time points, and the reaction was stopped by SDS-PAGE sample buffer. For the steady-state peptide kinetics of the Histone peptide PKTPKKAKKL, a similar assay composition was used as for protein substrates and the standard phosphocellulose method was applied for the quantification of the phosphorylated substrate (Loog and Morgan, 2005). Synthetic peptides as competitor agents were used in 4 mM final concentrations. […]

Clb3-Cdk1 = target: T5, Clb3-Cdk1 (Saccharomyces cerevisiae, UniProt P00546+P24870)
T5 construct: We purified the four cyclin-Cdk1 complexes from yeast; made in house; host or cells: S. cerevisiae strain DOM0957 (gal-CLB3-TAP, sic1 deleted); Cks1 from bacteria
Experimental: as §1, with “substrate. […]” for “substrate.”
as §7, with “similar substrate specificity as the Cln2-Cdk1 version purified using a TAP-tag. N-terminally 6His-tagged” for “tagged”
as §8, §10

Cln2-Cdk1 = target: T6, Cln2-Cdk1 (Saccharomyces cerevisiae, UniProt P00546+P20438)
T6 construct: We purified the four cyclin-Cdk1 complexes from yeast; made in house; host or cells: S. cerevisiae strain DMY305 (galactose-induced); Cks1 from bacteria
Experimental: as §1, with “substrate. […]” for “substrate.”
as §7, with “similar substrate specificity as the Cln2-Cdk1 version purified using a TAP-tag. N-terminally 6His-tagged” for “tagged”
as §8, §10

Clb5-Cdk1 = target: T7, Clb5-Cdk1 (Saccharomyces cerevisiae, UniProt P00546+P30283)
T7 construct: We purified the four cyclin-Cdk1 complexes from yeast; made in house; host or cells: S. cerevisiae strain DOM0076 (gal-CLB5-TAP, sic1 deleted); Cks1 from bacteria
Experimental: as §1, with “substrate. […]” for “substrate.”
as §7, with “similar substrate specificity as the Cln2-Cdk1 version purified using a TAP-tag. N-terminally 6His-tagged” for “tagged”
as §8, §10

T2 sequence (P00546 2-298 limits assumed): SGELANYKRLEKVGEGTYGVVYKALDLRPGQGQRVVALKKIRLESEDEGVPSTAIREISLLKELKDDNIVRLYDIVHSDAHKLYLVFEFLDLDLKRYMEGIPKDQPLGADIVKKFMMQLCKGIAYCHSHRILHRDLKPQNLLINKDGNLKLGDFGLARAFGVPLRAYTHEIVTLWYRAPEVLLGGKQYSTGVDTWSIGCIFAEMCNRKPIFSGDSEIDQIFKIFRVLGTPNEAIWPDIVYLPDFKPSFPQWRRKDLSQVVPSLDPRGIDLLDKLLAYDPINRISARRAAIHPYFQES
T7 sequence (P00546 2-298 limits assumed): as above
T7 sequence (P30283 whole entry partner): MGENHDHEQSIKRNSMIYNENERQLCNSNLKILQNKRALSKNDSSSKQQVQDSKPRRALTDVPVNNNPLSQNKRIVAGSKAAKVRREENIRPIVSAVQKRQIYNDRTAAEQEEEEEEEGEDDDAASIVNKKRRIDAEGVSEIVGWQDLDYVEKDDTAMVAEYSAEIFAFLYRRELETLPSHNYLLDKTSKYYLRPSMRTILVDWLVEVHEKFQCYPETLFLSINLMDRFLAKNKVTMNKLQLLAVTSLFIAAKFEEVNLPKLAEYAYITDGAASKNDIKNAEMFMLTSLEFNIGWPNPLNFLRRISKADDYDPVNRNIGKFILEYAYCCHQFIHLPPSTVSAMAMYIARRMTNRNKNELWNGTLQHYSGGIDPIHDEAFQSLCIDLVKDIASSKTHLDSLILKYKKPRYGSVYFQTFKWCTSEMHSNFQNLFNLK
T7 sequence (P20486 whole entry partner): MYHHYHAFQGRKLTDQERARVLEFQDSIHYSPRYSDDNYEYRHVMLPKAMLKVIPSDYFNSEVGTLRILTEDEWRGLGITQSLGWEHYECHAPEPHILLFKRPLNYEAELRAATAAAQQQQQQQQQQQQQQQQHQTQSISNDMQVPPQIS
T4 sequence (P00546 2-298 limits assumed): as the sequence (P00546 2-298 limits assumed) above
T4 sequence (P24869 2-491 partner limits assumed): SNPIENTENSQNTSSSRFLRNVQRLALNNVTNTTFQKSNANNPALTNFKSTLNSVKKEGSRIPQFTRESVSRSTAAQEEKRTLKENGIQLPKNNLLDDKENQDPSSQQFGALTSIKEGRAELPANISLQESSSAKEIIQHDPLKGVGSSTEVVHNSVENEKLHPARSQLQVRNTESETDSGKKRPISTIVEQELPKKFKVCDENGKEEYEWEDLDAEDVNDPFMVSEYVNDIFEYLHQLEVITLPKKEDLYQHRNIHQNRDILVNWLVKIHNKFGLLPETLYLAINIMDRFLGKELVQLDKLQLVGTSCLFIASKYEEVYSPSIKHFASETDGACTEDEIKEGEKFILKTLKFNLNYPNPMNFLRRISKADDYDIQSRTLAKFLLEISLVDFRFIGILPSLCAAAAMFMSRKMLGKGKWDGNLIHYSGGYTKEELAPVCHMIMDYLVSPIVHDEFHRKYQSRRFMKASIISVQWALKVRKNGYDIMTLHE
T4 sequence (P20486 whole entry partner): as the sequence (P20486 whole entry partner) above
T5 sequence (P00546 2-298 limits assumed): as the sequence (P00546 2-298 limits assumed) above
T5 sequence (P24870 whole entry partner): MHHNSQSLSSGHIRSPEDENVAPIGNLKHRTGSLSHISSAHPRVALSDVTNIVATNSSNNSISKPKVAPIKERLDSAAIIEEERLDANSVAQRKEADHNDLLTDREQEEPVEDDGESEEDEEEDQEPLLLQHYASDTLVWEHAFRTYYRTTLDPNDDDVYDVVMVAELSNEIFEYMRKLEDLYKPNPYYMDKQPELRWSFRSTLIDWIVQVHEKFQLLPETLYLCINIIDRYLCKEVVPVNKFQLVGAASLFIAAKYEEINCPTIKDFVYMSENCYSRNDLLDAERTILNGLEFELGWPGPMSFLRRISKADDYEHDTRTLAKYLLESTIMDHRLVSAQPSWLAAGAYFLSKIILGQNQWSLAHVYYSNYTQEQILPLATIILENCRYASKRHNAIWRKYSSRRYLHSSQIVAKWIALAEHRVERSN
T5 sequence (P20486 whole entry partner): as the sequence (P20486 whole entry partner) above
T1 sequence (P00546 2-298 limits assumed): as the sequence (P00546 2-298 limits assumed) above
T6 sequence (P00546 2-298 limits assumed): as above
T6 sequence (P20438 whole entry partner): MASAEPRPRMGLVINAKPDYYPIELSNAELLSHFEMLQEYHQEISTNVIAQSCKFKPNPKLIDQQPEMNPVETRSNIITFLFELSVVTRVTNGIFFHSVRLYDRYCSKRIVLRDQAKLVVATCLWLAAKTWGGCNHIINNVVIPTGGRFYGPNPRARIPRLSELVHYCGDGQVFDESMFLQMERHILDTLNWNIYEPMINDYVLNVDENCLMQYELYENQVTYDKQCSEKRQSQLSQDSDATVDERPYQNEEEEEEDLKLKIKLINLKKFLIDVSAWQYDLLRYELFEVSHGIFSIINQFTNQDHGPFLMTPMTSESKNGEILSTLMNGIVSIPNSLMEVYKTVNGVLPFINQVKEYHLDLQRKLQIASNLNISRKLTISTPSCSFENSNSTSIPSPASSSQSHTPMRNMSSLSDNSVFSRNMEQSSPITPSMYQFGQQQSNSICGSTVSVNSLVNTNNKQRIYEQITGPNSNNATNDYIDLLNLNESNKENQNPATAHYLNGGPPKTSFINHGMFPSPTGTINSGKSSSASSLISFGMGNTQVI
T6 sequence (P20486 whole entry partner): as the sequence (P20486 whole entry partner) above

Molecule | kcat/KM, Clb2hpm (Clb2hpm-Cdk1) | kcat/KM, Clb5hpm (Clb5hpm-Cdk1) | kcat/KM, Clb3hpm (Clb3hpm-Cdk1) | kcat/KM, Clb2 (Clb2-Cdk1) | kcat/KM, Clb3 (Clb3-Cdk1) | kcat/KM, Cln2 (Cln2-Cdk1) | kcat/KM, Clb5 (Clb5-Cdk1)
PDS1: GST-tagged purified yeast protein tested as Cdk1 substrate (protein, UniProt P40316 1-373, looked up, GST tag, GST-tagged purified yeast protein tested as Cdk1 substrate) Securin: MMPANEDKENNIVYTGNESSGINFPQTPAHLLKRSHSNILKPPVRLDQLKRDANSNNGNTLKYIQGGKEVSPTKRLHTHAQQQGRLPLAAKDNNRSKSFIFPETSNQSKDADLPQLQNTLSIRKNDQLRKLSQISRSRSRANHNDLLSNSRKLQKYGSVLGYNALPKMKSLVLKDLADSGKNEESSDDDEGNEDSESKLGKKLQSALLKQDSSDGENELNGGLGLFNEQGGLQQLIKNSTKNEQKTKNDKSDKTDDYDIEIAPQRQEPLPYVPEGYSPFQQDDIEKLKTFNSPYKLDLEDEDDTPDKVDLLPLEQIDEEGEKDETECITRNQEEGAALPLLSKNFKEVAAVPTMELVYSEEGLDPEELEDLVT | 0.035 relative units | 0.002 relative units | 0.005 relative units | 0.049 relative units | 0.015 relative units | 0.249 relative units | 0.008 relative units
ORC6: purified yeast protein tested as Cdk1 substrate (protein, UniProt P38826 1-435, looked up) Origin recognition complex …: MSMQQVQHCVAEVLRLDPQEKPDWSSGYLKKLTNATSILYNTSLNKVMLKQDEEVARCHICAYIASQKMNEKHMPDLCYYIDSIPLEPKKAKHLMNLFRQSLSNSSPMKQFAWTPSPKKNKRSPVKNGGRFTSSDPKELRNQLFGTPTKVRKSQNNDSFVIPELPPMQTNESPSITRRKLAFEEDEDEDEEEPGNDGLSLKSHSNKSITGTRNVDSDEYENHESDPTSEEEPLGVQESRSGRTKQNKAVGKPQSELKTAKALRKRGRIPNSLLVKKYCKMTTEEIIRLCNDFELPREVAYKIVDEYNINASRLVCPWQLVCGLVLNCTFIVFNERRRKDPRIDHFIVSKMCSLMLTSKVDDVIECVKLVKELIIGEKWFRDLQIRYDDFDGIRYDEIIFRKLGSMLQTTNILVTDDQYNIWKKRIEMDLALTEPL | 0.005 relative units | 0.001 relative units | 0.002 relative units | 0.009 relative units | 0.018 relative units | 0.002 relative units | 0.029 relative units
PLM2: purified yeast protein tested as Cdk1 substrate (protein, UniProt Q04383 1-521, looked up) Protein PLM2: MSHLFPPSSPVAGKPLESPQKEPGKLANTSVLTLGRKRYNYELEEYPTPDPSSSIGRQSSPVKDITSRLNETKSALSSPSKQEKVLAGPIEIELDASDPSRLAIGRKKSVCNIILPCRKNISRQHAFISYAADRNEIKLECNGTNGLSVHLPYSMQLHLVKPFPTRNFYKLVAEEPLTSQNTKQSHGKTLQKNQNFISFVLAKGETVTFPYIQGSFINFTGVTVCLSLKKVAPYPGDGNNNFDEENSTETEDELCLLTTTSDDFSWQKETPSMKFVPVEHSPRTEQISKPLLIASPALVKNSPISYRTTPQTSFVINQPSTPKKLKRKSISLKNNTIQETPLPKDKIIGTLSASTRSGGINEEESFAAVAKKTKELSSTTAIVSPAQKRLKTSLNIIPEISRSLSERGIRFDDLVHVLCNHLAFSNLQQTPLSQLQNINSNTSQLSKDELKKVLETISCIGIIVREGKDASGKPLEDEYYYDVENDDSDERKILYNSLKGRSRLRSCRKKHKQYFWKRPTK | 6.351 relative units | 0.428 relative units | 1.144 relative units | 9.072 relative units | 9.051 relative units | 0.428 relative units | 1.724 relative units
ORC2: purified yeast protein tested as Cdk1 substrate (protein, UniProt P32833 1-620, looked up) Origin recognition complex …: MLNGEDFVEHNDILSSPAKSRNVTPKRVDPHGERQLRRIHSSKKNLLERISLVGNERKNTSPDPALKPKTPSKAPRKRGRPRKIQEELTDRIKKDEKDTISSKKKRKLDKDTSGNVNEESKTSNNKQVMEKTGIKEKREREKIQVATTTYEDNVTPQTDDNFVSNSPEPPEPATPSKKSLTTNHDFTSPLKQIIMNNLKEYKDSTSPGKLTLSRNFTPTPVPKNKKLYQTSETKSASSFLDTFEGYFDQRKIVRTNAKSRHTMSMAPDVTREEFSLVSNFFNENFQKRPRQKLFEIQKKMFPQYWFELTQGFSLLFYGVGSKRNFLEEFAIDYLSPKIAYSQLAYENELQQNKPVNSIPCLILNGYNPSCNYRDVFKEITDLLVPAELTRSETKYWGNHVILQIQKMIDFYKNQPLDIKLILVVHNLDGPSIRKNTFQTMLSFLSVIRQIAIVASTDHIYAPLLWDNMKAQNYNFVFHDISNFEPSTVESTFQDVMKMGKSDTSSGAEGAKYVLQSLTVNSKKMYKLLIETQMQNMGNLSANTGPKRGTQRTGVELKLFNHLCAADFIASNEIALRSMLREFIEHKMANITKNNSGMEIIWVPYTYAELEKLLKTVLNTL | 0.067 relative units | 0.012 relative units | 0.028 relative units | 0.018 relative units | 0.132 relative units | 0.073 relative units | 0.405 relative units
